Assay results taken from PMC9404881, “Simultaneous Maturation of Single Chain Antibody Stability and Affinity by CHO Cell Display” (Bioengineering, 2022).
Where a chain is given by its changes, count along the chain named. In names and notes the source's numbering stands.

B1: Anti-human TNFα wild-type scFv (soluble, His-tagged) (scFv, V domains shown)
VH: QLVQSGPELKKPGETVKISCKASGYTFTNYGMNWVKQAPGKGLKWMGWINTYTGEPTYADDFKGRFAFSLETSASTAYLQINNLKNEDSATYFCAGRRSYDYDVAMDYWGQGTSVTIS
VL: DIVLTQSPASLAVSLGQRATISCRASESVDSYGNYFMHWYQQKPGQPPKLLIYRASNLESGIPARFSGSGSGTDFTLTINPVEADDVATYYCQQSNEEPLTFGSGTKLEIK
notes: scFv from Jie Tang (Institute of Biophysics, CAS); Theoretical mass with His tag about 25 kDa; also called αTNFα; anti-TNFα WT scFv; source: 293F cells, transfected, supernatant purified on a nickel column; not shown: His6, C-terminal, kept
B2: Anti-TNFα scFv mutant A115V displayed on CHO cells (scFv, V domains shown)
VH: B1 VH with A105V
VL: B1 VL
notes: Most enriched clone of the maturation under normal conditions (37 °C culture, 4 °C labelling); Display construct as m4; not shown: transmembrane peptide (TM), C-terminal, kept
B3: Anti-TNFα scFv mutant G94R (soluble, His-tagged) (scFv, V domains shown)
VH: B1 VH with G96R
VL: B1 VL
notes: position 94 of the heavy chain in the Chothia scheme, right before heavy chain CDR3; Found by AID mutagenesis and sorting on thermo-resistant CHO cells; The base change is printed as G316A; also called G316A (base); G94R scFv; source: 293F cells, transfected, supernatant purified on a nickel column; not shown: His6, C-terminal, kept

What was measured:
[1] = target: T1, His-TNFα-GFP (Homo sapiens, UniProt P01375, biotin (conjugated for the Octet measurement only)); assay: BLI; ForteBio Octet; biotinylated TNFα-GFP (20 μg/mL) fixed on streptavidin (SA) biosensors; scFv in solution, 250-8000 nM for wild type and 31.25-1000 nM for mutant; association 120 s, dissociation 180 s; KD = Koff/Kon; conditions: both partners purified
T1 construct: TNFα, antigen of the anti-human TNFα scFv; The names His-TNFα-GFP and GFP-TNFα are both printed, so the side on which GFP stands is not certain; Probably the soluble form of TNFα (surmise); also called GFP-TNFα; source: E. coli containing the PET28a (+)-TNFα-GFP plasmid, purified with a Ni column

[2] = target: T1, His-TNFα-GFP; assay: flow cytometry on cells; scFv displayed on CHO cells, labelled with TNFα-GFP and PE-conjugated anti-HA antibody for 1/2 h at 4 °C; with or without 5% BSA (antigen binding much reduced without BSA); conditions: one partner purified

T1 sequence (P01375 whole entry): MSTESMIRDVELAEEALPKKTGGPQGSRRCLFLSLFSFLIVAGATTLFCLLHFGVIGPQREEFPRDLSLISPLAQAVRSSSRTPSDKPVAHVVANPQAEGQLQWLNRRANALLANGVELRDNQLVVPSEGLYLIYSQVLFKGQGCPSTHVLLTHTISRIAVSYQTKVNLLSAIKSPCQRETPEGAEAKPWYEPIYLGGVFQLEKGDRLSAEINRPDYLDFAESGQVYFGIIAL

Row | Binder | Kd [1] [nM] | koff [1] [s⁻¹] | kon [1] [M⁻¹ s⁻¹] | binding result [2]
1 | B1 | 1550 | 0.00873 | 5620 | –
2 | B2 | – | – | – | binds
3 | B3 | 9.69 | 0.00159 | 164000 | –
